We go through one molecule from paper PMC6151454, “The Recognition of Calmodulin to the Target Sequence of Calcineurin—A Novel Binding Mode” (Molecules : A Journal of Synthetic Chemistry and Natural …, 2017).

The target in this test is Calmodulin (CaM), chicken, recombinant (chicken, UniProt P62149 2-149). Kind of test: circular dichroism titration; various amounts of CaNp added to a fixed amount of CaM; far-UV CD; 100 mM KCl, 2 mM CaCl2, pH 6.5. As to conditions: both partners purified. Background: Circular dichroism is the unequal absorption of left and right circularly polarised light.

B1: CaM-binding domain (target peptide) of calcineurin A, residues 391-414 (CaNp) (peptide)
peptide: ARKEVIRNKIRAIGKMARVFSVLR
notes: CaM target domain of the calcineurin catalytic subunit (CaN-A) α-isoform, residue 391-414; 13C,15N-labelled or unlabelled in the NMR samples; also called target peptide of CaN; not shown: CaM with factor Xa cleavage site IEGR (CaM-CaNp hybrid molecule), N-terminal, cleaved
Turning to B1, the “stoichiometry N” value came out at 1.

Broadly, the stoichiometry N is the number of molecules, sites or subunits per partner or assembly.
